Among the data in US20030092619A1 are luciferase reporter with multimerized STAT6 response elements, HepG2 cells, IL-4 induced values, retold here.

For the experiment, the target named is full length STAT6 (human) (UniProt P42226). In words: cell-based or functional assay.
full length STAT6 (human), sequence (P42226 2-847): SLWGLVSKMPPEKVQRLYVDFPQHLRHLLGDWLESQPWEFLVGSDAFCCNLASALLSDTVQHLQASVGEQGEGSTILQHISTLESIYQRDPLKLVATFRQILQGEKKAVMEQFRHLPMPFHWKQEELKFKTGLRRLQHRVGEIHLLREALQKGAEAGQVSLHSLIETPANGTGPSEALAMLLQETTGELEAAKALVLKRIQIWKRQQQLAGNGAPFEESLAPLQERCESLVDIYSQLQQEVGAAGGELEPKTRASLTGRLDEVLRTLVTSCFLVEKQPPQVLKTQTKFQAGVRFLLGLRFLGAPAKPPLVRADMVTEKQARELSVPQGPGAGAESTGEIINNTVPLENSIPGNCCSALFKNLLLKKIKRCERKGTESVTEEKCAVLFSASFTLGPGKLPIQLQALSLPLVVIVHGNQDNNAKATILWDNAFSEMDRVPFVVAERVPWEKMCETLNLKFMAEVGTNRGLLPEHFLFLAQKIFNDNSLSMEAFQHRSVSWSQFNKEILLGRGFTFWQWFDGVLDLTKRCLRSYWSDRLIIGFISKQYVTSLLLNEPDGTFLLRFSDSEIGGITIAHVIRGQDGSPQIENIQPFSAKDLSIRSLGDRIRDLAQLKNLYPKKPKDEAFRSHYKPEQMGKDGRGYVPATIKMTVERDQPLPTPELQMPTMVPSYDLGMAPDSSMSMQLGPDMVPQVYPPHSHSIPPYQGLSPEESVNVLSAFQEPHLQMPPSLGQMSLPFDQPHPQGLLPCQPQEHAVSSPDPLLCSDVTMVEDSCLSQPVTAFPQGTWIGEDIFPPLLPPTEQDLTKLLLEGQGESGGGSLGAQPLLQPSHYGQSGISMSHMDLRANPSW

“NCoA-1 (nuclear coactivator 1), full length (from UniProt P70365 2-1447)” had a luciferase reporter with multimerized STAT6 response elements, HepG2 cells, IL-4 induced of under 3 fold.
